Here are results for 4 molecules from PMC3328385 (The Journal of Cell Biology, 2012).

Where a chain is given by its changes, count along the chain named. Numbers in names are those of the source.

Series [1] deals with t-SNAREs: syntaxin-1A/SNAP-25B, coexpressed, reconstituted in liposomes or supported bilayers (rat | mouse, UniProt P32851;P60879). Put plainly: liposome coflotation.
Series [2] deals with the molecule itself. Put plainly: native gel or EMSA. In general terms: A gel shift assay detects complexes by their altered migration in electrophoresis.

Chain of t-SNAREs: syntaxin-1A/SNAP-25B, coexpressed, reconstituted in liposomes or supported bilayers (P32851 whole entry, chain 1 of 2): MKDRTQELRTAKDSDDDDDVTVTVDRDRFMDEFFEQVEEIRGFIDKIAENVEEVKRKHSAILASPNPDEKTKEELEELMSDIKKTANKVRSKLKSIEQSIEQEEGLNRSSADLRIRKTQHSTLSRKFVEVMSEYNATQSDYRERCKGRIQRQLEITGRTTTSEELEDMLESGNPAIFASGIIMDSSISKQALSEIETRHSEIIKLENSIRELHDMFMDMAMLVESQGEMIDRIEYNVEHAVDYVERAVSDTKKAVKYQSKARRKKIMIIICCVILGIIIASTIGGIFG
Chain of t-SNAREs: syntaxin-1A/SNAP-25B, coexpressed, reconstituted in liposomes or supported bilayers (P60879 whole entry, chain 2 of 2): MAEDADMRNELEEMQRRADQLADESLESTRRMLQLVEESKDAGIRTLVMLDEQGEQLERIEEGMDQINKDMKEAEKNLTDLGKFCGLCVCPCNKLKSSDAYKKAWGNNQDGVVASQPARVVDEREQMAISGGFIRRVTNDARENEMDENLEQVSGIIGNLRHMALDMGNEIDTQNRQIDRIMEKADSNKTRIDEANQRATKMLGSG

B1: Munc13-4 (wild type, His6-tagged human Munc13-4) (natural protein)
chain: MATLLSHPQQRPPFLRQAIKIRRRRVRDLQDPPPQMAPEIQPPSHHFSPEQRALLYEDALYTVLHRLGHPEPNHVTEASELLRYLQEAFHVEPEEHQQTLQRVRELEKPIFCLKATVKQAKGILGKDVSGFSDPYCLLGIEQGVGVPGGSPGSRHRQKAVVRHTIPEEETHRTQVITQTLNPVWDETFILEFEDITNASFHLDMWDLDTVESVRQKLGELTDLHGLRRIFKEARKDKGQDDFLGNVVLRLQDLRCREDQWYPLEPRTETYPDRGQCHLQFQLIHKRRATSASRSQPSYTVHLHLLQQLVSHEVTQHEAGSTSWDGSLSPQAATVLFLHATQKDLSDFHQSMAQWLAYSRLYQSLEFPSSCLLHPITSIEYQWIQGRLKAEQQEELAASFSSLLTYGLSLIRRFRSVFPLSVSDSPARLQSLLRVLVQMCKMKAFGELCPNTAPLPQLVTEALQTGTTEWFHLKQQHHQPMVQGIPEAGKALLGLVQDVIGDLHQCQRTWDKIFHNTLKIHLFSMAFRELQWLVAKRVQDHTTVVGDVVSPEMGESLFQLYISLKELCQLRMSSSERDGVLALDNFHRWFQPAIPSWLQKTYNEALARVQRAVQMDELVPLGELTKHSTSAVDLSTCFAQISHTARQLDWPDPEEAFMITVKFVEDTCRLALVYCSLIKARARELSSGQKDQGQAANMLCVVVNDMEQLRLVIGKLPAQLAWEALEQRVGAVLEQGQLQNTLHAQLQSALAGLGHEIRTGVRTLAEQLEVGIAKHIQKLVGVRESVLPEDAILPLMKFLEVELCYMNTNLVQENFSSLLTLLWTHTLTVLVEAAASQRSSSLASNRLKIALQNLEICFHAEGCGLPPKALHTATFQALQRDLELQAASSRELIRKYFCSRIQQQAETTSEELGAVTVKASYRASEQKLRVELLSASSLLPLDSNGSSDPFVQLTLEPRHEFPELAARETQKHKKDLHPLFDETFEFLVPAEPCRKAGACLLLTVLDYDTLGADDLEGEAFLPLREVPGLSGSEEPGEVPQTRLPLTYPAPNGDPILQLLEGRKGDREAQVFVRLRRHRAKQASQHALRPAP
Turning to B1, the “fold increase in binding with Ca2+ against no Ca2+” value in series [1] came out at 2.5 fold.

B2: C2A*B* Munc13-4 (D127N/D133N/D941N/D947N) (natural protein)
chain: B1 chain with D127N, D133N, D941N, D947N
B2: the binding result in series [2] and in series [1] was “binds” each time.

B3: C2A* Munc13-4 (D127N/D133N) (natural protein)
chain: B1 chain with D127N, D133N
Consider B3, for which the binding result in series [2] and in series [1] was “binds” in each case.

B4: C2B* Munc13-4 (D941N/D947N) (natural protein)
chain: B1 chain with D941N, D947N
B4: the binding result in series [2] and in series [1] was “binds” in each case.
